This experiment has as its target Rat thrombin (rat). In words: enzyme inhibition kinetics (thrombin-catalysed hydrolysis of Chromozym TH).

As to Hirulog-1 (peptide), the Ki (commonly a dissociation constant, usually derived from enzyme kinetics or from competition with a known ligand) came to 20.5 nM.
